Consider one protein from patent US20070292909.

In series [1] the target is ECFP-(spacer) DEVD-keima 616.
The next series deals with T1, MiCy-DEVD-mKO.
T1 chain: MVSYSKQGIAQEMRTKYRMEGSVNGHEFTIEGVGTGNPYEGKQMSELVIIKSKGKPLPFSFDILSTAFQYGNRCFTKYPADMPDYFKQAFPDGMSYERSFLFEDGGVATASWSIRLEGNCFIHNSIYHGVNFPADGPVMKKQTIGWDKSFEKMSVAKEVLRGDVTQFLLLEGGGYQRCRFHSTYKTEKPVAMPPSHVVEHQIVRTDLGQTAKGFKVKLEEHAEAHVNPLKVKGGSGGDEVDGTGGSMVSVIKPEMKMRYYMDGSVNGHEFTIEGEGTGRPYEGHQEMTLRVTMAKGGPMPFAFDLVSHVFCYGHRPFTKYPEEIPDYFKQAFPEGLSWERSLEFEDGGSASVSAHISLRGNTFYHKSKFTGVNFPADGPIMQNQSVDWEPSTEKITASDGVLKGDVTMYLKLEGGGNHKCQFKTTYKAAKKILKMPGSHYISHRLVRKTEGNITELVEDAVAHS

For series [2], the target named is keima 616-(spacer) DEVD-ECFP.

B1: Caspase-3 (protein)
chain: SGISLDNSYKMDYPEMGLCIIINNKNFHKSTGMTSRSGTDVDAANLRETFRNLKYEVRNKNDLTREEIVELMRDVSKEDHSKRSSFVCVLLSHGEEGIIFGTNGPVDLKKITNFFRGDRCRSLTGKPKLFIIQACRGTELDCGIETDSGVDDDMACHKIPVEADFLYAYSTAPGYYSWRNSKDGSWFIQSLCAMLKQYADKLEFMHILTRVNRKVATEFESFSFDATFHAKKQIPCIVSMLTKELYFYH
With B1, the “amplitude of the fluorescence cross-correlation function, Gcross(0)” value is listed as “A rapid decrease in Gcross(0) was observed as a result of addition of Caspase-3” in series [1], “A rapid decrease in Gcross(0) was observed as a result of addition of Caspase-3” in series [2] and “A decrease in Gcross(0) was observed as a result of addition of Caspase-3” with EGFP-DEVD-mRFP1 (x2). Moreover, the “fluorescence spectrum (FRET, excitation at 440 nm) before and after the reaction with Caspase-3” value in the series with MiCy-DEVD-mKO was “after the addition thereof, FRET disappeared due to the cleavage of the linker and the fluorescence peak (559 nm) of mKO thereby disappeared, so that only the fluorescence peak (495 nm) of MiCy remained”. Also, in series [2], the “SDS-PAGE and Native-PAGE bands after the reaction with Caspase-3” value was “When keima 616-DEVD-ECFP was reacted with Caspase-3, the bands with the sizes of keima 616 and ECFP could be confirmed”.
